Biological target: J17 (pH-sensitive anti-PCSK9 mAb, variant of J16) engineered pH-sensitive variant of J16; substitutions not stated in this article (see ref 9)
Assay: KinExA (kinetic exclusion assay), multi-curve global analysis
Details: pH 7.4; room temperature (approximately 23 C); 154 mM NaCl; PBS pH 7.4 (1 mM KH2PO4, 5.6 mM Na2HPO4, 154 mM NaCl)

KD: 0.064 nM
Substance: rhPCSK9 (recombinant human proprotein convertase subtilisin/kexin type 9)
